# Data from IntAct's records for PubMed 17998537.
# B1: Mitochondrial fission 1 protein (Saccharomyces cerevisiae), P40515 (parent)
# chain: MTKVDFWPTLKDAYEPLYPQQLEILRQQVVSEGGPTATIQSRFNYAWGLIKSTDVNDERLGVKILTDIYKEAESRRRECLYYLTIGCYKLGEYSMAKRYVDTLFEHERNNKQVGALKSMVEDKIQKETLKGVVVAGGVLAGAVAVASFFLRNKRR
# partner: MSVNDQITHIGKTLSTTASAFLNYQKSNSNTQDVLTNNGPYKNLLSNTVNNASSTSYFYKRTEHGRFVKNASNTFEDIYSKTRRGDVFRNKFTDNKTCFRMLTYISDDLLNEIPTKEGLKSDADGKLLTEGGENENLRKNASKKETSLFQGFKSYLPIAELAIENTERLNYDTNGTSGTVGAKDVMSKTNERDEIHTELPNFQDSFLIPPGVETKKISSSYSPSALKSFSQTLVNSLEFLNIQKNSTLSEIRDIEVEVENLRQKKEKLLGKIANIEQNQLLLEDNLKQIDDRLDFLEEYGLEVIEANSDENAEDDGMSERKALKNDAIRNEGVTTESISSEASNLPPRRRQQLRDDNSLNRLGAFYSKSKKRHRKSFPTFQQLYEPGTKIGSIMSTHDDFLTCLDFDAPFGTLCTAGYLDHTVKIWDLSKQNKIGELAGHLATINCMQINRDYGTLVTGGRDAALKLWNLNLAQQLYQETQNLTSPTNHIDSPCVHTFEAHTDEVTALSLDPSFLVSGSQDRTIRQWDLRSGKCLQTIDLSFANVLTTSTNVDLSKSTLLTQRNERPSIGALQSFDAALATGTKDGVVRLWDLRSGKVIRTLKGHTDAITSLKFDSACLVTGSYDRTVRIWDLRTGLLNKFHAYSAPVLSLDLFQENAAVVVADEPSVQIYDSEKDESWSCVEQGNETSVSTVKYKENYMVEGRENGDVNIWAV
# B2: Mitochondrial division protein 1 (Saccharomyces cerevisiae), P47025 (parent)
# chain: B1 partner
# partner: B1 chain
# B3: CCR4-associated factor 4 (Saccharomyces cerevisiae), P36130 (parent)
# chain: MGSGDTRGESSLVAKPIEIILNKLPHAILAQQQFQKYITSPIYRYLSKLLLFREVAWPESTKDTQKGQVGIFSFQNNYADSATTFRILAHLDEQRYPLPNGAAEKNLPSLFEGFKATVSIIQQRLLLDNVDGATNSDKEKYVQLPDINTGFVNKTYSRIDLTHLLEDVETNVENLSINKTLEMDELTRLDSMINELESRKLKILERVKHIDSKSTNLENDVTLIKDRINFIEEYNLEADREQSLRKQMEEERSSEASSFTQNEEAISSLCDVESKDTRLKDFYKMPHEKSHDKNRQIISETYSRNTTAFRMTIPHGEHGNSITALDFDTPWGTLCSSSYQDRIVKVWDLNHGIQVGELPGHLATVNCMQIDKKNYNMLITGSKDATLKLWDLNLSREIYLDHSPLKEKTEEIVTPCIHNFELHKDEITALSFDSEALVSGSRDKKIFHWDLTTGKCIQQLDLIFTPTHSDIKMPARSLNNGACLLGTEAPMIGALQCYNSALATGTKDGIVRLWDLRVGKPVRLLEGHTDGITSLKFDSEKLVTGSMDNSVRIWDLRTSSILDVIAYDLPVSSLDFDGKLITVGANEGGVNVFNMERDEHWMTPEPPHSLDGDELSRRIAIVKYKDGFLINGHNDGDINVWTL
# partner: B1 chain
# Variants of: B1
# Details: with mdv1_yeast MDV1, P47025
row,effect of a mutation on the interaction,Variant
1,disrupting interaction,F43A;N44A
2,disrupting interaction,W47A
3,disrupting interaction,I24A;L25A

# Variants of: B2
# Details: with fis1_yeast FIS1, P40515
row,effect of a mutation on the interaction,Variant
1,disrupting interaction,L148A
2,disrupting interaction,F99A;R100A
3,disrupting interaction,F152A
4,disrupting interaction,F149A
5,disrupting interaction,I105A

# Variants of: B3
# Details: with fis1_yeast FIS1, P40515
row,effect of a mutation on the interaction,Variant
1,disrupting interaction strength,L110A
2,disrupting interaction strength,F114A
3,disrupting interaction strength,F85A;R86A
4,disrupting interaction strength,L88A
5,disrupting interaction strength,F111A
